Data published in publication PMC10588934.

Target: dopamine receptor D1 fused to LgBiT (UniProt P21728)
Test: split reporter

Chain of UniProt P21728 (P21728 whole entry, the tested form may be a part): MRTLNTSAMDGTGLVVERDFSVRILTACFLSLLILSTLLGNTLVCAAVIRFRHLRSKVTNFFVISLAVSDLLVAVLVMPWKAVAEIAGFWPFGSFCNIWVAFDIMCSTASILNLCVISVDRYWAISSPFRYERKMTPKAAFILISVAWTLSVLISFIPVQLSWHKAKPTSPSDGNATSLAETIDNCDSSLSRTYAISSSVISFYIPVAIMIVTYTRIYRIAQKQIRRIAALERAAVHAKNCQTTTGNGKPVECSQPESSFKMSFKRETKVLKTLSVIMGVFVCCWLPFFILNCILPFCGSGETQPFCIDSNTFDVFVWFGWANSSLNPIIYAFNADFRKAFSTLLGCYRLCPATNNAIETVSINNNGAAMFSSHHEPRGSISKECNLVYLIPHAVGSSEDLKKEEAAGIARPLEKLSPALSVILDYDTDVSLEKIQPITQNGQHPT

DDR (luminescence with drug / without drug): 1.6
Substance: SmBiT-miniGs (domain or fragment)
